# Assay results published in the DeepSol protein solubility set.
# Assay: soluble on expression in E. coli; label from the status in PepcDB or PDB records
row,Sequence,soluble on expression in E. coli
1,MAYNSNSNNNNNNIVVVFDFDKTIIDVDSDNWVIDELGFTDLFNQLLPTMPWNTLMDRMMKELHDQGKTIEEIKQVLRTIPIHPRVVPAIKSAHDLGCELRIVSDANMFFIETIVEHLGISELFSEINSNPGYVDERGTLKISPYHDFTKSPHSCSCGTCPPNMCKGLIIERIQQSLAKEGKKKMIYLGDGAGDYCPSLKLNTEDYVMPRKNFPVWDLISQNPMLIKAAIREWTDGQSMEMILIGTIEEIRLEEEKEKMLTSAENNCKMQTISIGINNVHHEPILPRALRVSQSS,soluble
2,MCAKATMEEFEALLNESLQIDTPQEGSVVKGKVIAVEAGQAIIDVGYKMEGRVDLKEFADMSGSVDISVGDEVEVYLDRVENARGEAVISRDKAKREEAWDRLEKAYANETRVEGAIFGRVKGGFTVDLGGAVAFLPGSQVDVRPVRDAGPLMGMKQPFQILKMDRRRGNIVVSRRAILEESRAEQRAEVISNLFEGQTVDGVVKNITEYGAFVDLGGVDGLLHVTDMAWRRVNHPSEILSIGETVKVQVIKINKETHRISLGMKQLQSDPWDAVEKAYPIGSVHKGRVTNITDYGAFVELEAGVEGLVHVSEMSWTKKNVHPGKIVSTSQEVDVMVLEIDSAKRRVSLGLKQTMRNPWEVFAETHPVGTPIEGEVKNITEFGLFVGLEHDIDGMVHLSDLSWDQRGEEAIQNYRKGDVVKAVVTEVDTDKERISLSIKALGDDTFSEAIEGVKRGSVITVTVTAIEDGGIEVEYNSMKSFIRRSDLSRDRADQRPERFQVGDKVDVRVTNVDAKTRRLGLSIKAREIAEEKEAVEQYGSSDSGASLGDILGAALRNSDRGLEHHHHHH,soluble
3,MCETCLIVIMDSSHDFSFADTFALQVATWFSDVFAQPTVVQRQAWAAISAGENALVVAPTGSGKTLAAFLWALNELVQGSGQTALLSRQAAGSAEVEASRAKGVKVVYISPLKALGVDVENNLRAPLTGINQVAARLGIDQSDITVGVRSGDTPASERSKQVRNPPDILITTPESLYLMLTSKARSILTTVDTVIVDEIHAMAGTKRGVHLALSLERLEHLAAQPVQRIGLSATVRPLDVVARFLGGDRPVEVINPPLEKKWQLAVHVPVDDMSDLPTPEPVSEIGEATIDDPLGLTTQPEGFAESALPAQGSMWTFIEQDVFDEVMEHRSTLVFVNSRRTAERLTSRLNELYAQRFQPEALSPALRRPPAQLMKSIDIAGEATAIIARAHHGSVSKDERALTEKMLKQGELRAVVSTSSLELGIDMGAVDKVIQVESPPSVASGLQRVGRAGHVVGAVSHGSFYPKHRADLVQTAVTVGRMTEGLIEELHVPTNALDVLVQHTVAAVAMDDLDVEDWYATVVRAYPYRDLPREAFDAAIDLTAGVYPSTDFAELRPKVIYDRITGTLSARPGAQRTAVINGGTIPDRGMFGVFLVGSGESGAPRRVGELDEEMVYESRVGDVFTLGASSWRIEEINKDQVLVTPAPGHTGRLPFWTGDQAGRPAELGKALGAFRRTLVADPSVVEGMGLDVRARSNVVAFIQQQQESTGVVPDEVTLVLERFRDELGDWRVVLHSPYGRGVNAAWALVAGAAFSQRTGMDAQPVASDDGIVLRVPESDAEPGADLFEIDPDTVEELVAQQVGNSALFAARFRECAARALLLPSRTPGKRAPLWQQRQRAAQLLDVARKYPSFPIVLETVRECLHDVYDLDALVELAAALKLRKVRIAEVTTQQP,not soluble
4,MCGLLGMLSSTGQASKYAAAIESALPCMHHRGPDEAGTWHDDHAVFGFNRLSIIDLEHSHQPLRWGPEGEPDRYAMTFNGEIYNYVELRKKLQDLGYTFNTSGDGETIAVGFHHWGADVVLHLRGMFGIAIWDTKEQRLFLARDQFGIKPLYFATTEAGTVFASEKKCILGMADAIGLDLGLDQRAIEHYIDLQYVPEPESLHQHIRRLESGCFAFVSVGGNVEQTRYFRPQFPAQEF,not soluble
5,MCIGVPVQVISPGQWFAKCRDRHGELIDVDIRLVAPPLAGAWLLTFGGAARREMDEAEAAEVLAALDSLEQAMLTQSDPLTGFADLLSRTPELPEHLKK,not soluble
6,MCIKGCKRRIHPTRLLMLIRTEAPADILVVDQLLKNVFATEAEADLVMALRENGQRTLSLVACDDEGEIVGHVMFSPVTLEGEDLNWQGLAPLAVKEEYRRQGIGAELVKEGLSSLGELGYPACVVLGDPAYYSRFGFEDAARYSLRCAWDVPQGAFQVVALWERELDGRCGVIEYSQEFAAL,not soluble
7,MCMDEIKKWKNVKAKKITETLNKRHFKASYVETLEEAKEKLISMIEEGSSVAIGGSTTLSQMGMVDVLRNGNYKFFDRYQNLPFDPDIVEIHRKSLTADYLITGTNAITENGELVNTDCTGNRVAPMIFGPKNVIIVAGINKIVENIDAALKRIREIAPMNSKRIKHETPCVETGFCVDCDCKKRICNFTTIIHNGIKFEGRIKIIIIADELGYLEHHHHHH,not soluble
8,MCMDSNVSWMIREKIERTIKNLEKNNIEAYNVKNSKQLIELIDKLIPEGETVAVGGSMTLFETGIIDHIRSKNYNFLDRYKEGLSKEDIKDVFRKSFFADSYIVSTNALTENGELYNVDGNGNRVAAMLFGPDKVIVIAGINKIVKDVDEAIKRNKFVSAPINAKRLNKATPTKVGYCMDCKSQDRICNEYTLIKRQGVKGRIKVIIVEEELGYLEHHHHHH,soluble
9,MCNLTIHNIENYENDPQLRLIPWILWENLFQHFISANELSLMTLSYKEAIHIFLPGTKNMEQVRQLLCLYYAHYNRNAKQLWSDAHKKGIKSEVICFVAAITGCSSALDTLCLLLTSDEIVKVIQAENYQAFRLAAENGHLHVLNRLCELAPTEIMAMIQAENYHAFRLAAENGHLHVLNRLCELAPTEATAMIQAENYYAFRWAAVGRGHHNVINFLLDCPVMLAYAEIHEFEYGEKYVNPFIARHVNRLKEMHDAFKLSNPDGVFDLVTKSECLQGFYMLRNLIRRNDEVLLDDIRFLLSIPGIKALAPTATIPGDANELLRLALRLGNQGACALLLSIPSVLALTKANNYYINETGGRLDLRAVALEHHHHHH,soluble
10,MCSHYQALKDQERMRKYFAAHPSAEVPADMWPRYMGAFIRRPLEWDSGDEAVPEREAATGRWGMIPPGTRPEKLAEASKKNTSNARSETAHQLWTFRNAWAKAQHCIIPADAIYEPDWRSGKAVPTRFTRADGAPLGIAGLWDRYRNAAGEWIDSYTMLTINADDDPLFRDYHQAGKEKRMVVILPDGAYGDWLTAPATDTRDFLLPYPADRLVAAAVKLEHHHHHH,soluble
11,MCSYARATDANGESFIYCRTWQGQFFRFKLEDRVYDYVTTFAKSDACLATDPDDPTKIYCALNEYNKITCIDLTKNPEDSGFETDVCGIQGPGAYQDGHVSVARLNNPQQILSMHDPETGEKVIYICDANNNCVRMYNMETKLMSTVAGIGGKSGYAAGNPTVSRMNRPYGICITPENDIYVADAGNKVIMKLAFMLEHHHHHH,not soluble
12,MCTVVIDRRPGDPWPLLVAANRDELADRPWLPPARHWPSRPEVIAGLDELAGGTWMGLNDWGVVACVLNREGTLGPLAGRRSRGELVLDALDMADARDAAEALADIDPRAYRPFNLIVADNRDAFWIRHADAEGRAAVEVHPLAEGLTLMTAHDPDDPLDARARAYLPRFRAAPRPDPQLRDGWAPWTHLLGSRDHAVDDGPTAAMCFSLAGGFGTSSSSLIALPAMERIGVDPLYLFAPAPPDQTDYRPVLEHHHHHH,soluble
13,MDADSSNSTVTPGRLPDGLSSCPCFYLGKKLMNLSANAQATLLLTSDFSRAAASKYKPLSNSEWGKFALWLKHQRISPAELLVPQPQEKLTGWSDPRISQERILGLLARGHSLALAVDKWQRAGLWILTRGDADYPVRLKNRLRTDAPPVLFGCGNKALLQAEGMAIVGSRDAPTDDLRYTQQLAAKLAQQGICVISGGARGIDECAMASALEAGGTAVGVLADSLLKTSTLVKWREGLIAGNLVLISPFYPEVRFTVGNAMARNKYIYCLAESAMVVRAGMTGGTITGAMEALKHQWLPVQVKPNQDMQSANSRLVENGASWSAEQAENVTIRLPDVPGLMYDRALRNAQPELFSLHEDDANYAVMPAYTPVDFYQLFVAELAILAKESISIERLASCTGLTIEQISVWLNRAEEEGRVIRLGEGHYQFR,not soluble
14,MDASKSLPIRKHTTLLNRLPETRFATQLDKAKANWIVFAEYLSPRHFEDIDFFTGFYNPVLETWKVGQYEVALMAGELTSQHETILKSLNIDYASLNEVPDLSAPG,not soluble
15,MDAYLDYISGIWSKIDKKFHDQDISAKVAILQLVARPYYYWIQENPAQEKPVVEESQPRKQDNLREITSKYGDALQVDSDTVKIVKRLNTDEFNKLKEDLRQLGFLYDAQLRGFKKKQ,not soluble
16,MDCCEERGVARHKGLSQVGTPGCPRWSQAVSCRCSAYREAAVTAVQMPLTPGYGETPLPHDELAALLPEVVEVLDKPITRADVYDLEQGLQDQVFDLLMPTAVEGSLSLDELLSDHFVRDLHARMFGPV,soluble
17,MDCYVGATTGALKGAILKENTFQNLNEIKSLDPKSDEITSMIWNDEQQTEILIARVNRDLQLLGIEENELVSILTVTGGTGPIKGLHKADEKIVTCVESGELQIWNDKSEILSEWKTGPGVAVMRGSTEKPEIVTGGMKNLLKTWNLETGQQTWSAKNVPPDMLGLEIPIMITDARFIPGQNTILEATKLHEMRLYDPRAQRRPVKKIPFMENPIMCTSLTYKTNQILAANSIGEMGLFDLRSKVHPMCKFKGQAGSIRSITAHPTLPLAASVGIDRFLRVHDLQSRKLIHKIYCKTRLNRVLLRDNLSILNDKKPASKKEINEDETEYGNMTKDGYRSENEDDEDDDDVIEEDDVWGVMEPVKRAKKSSDDDVEEIQITSETIAVPSKNSQKLKRKNVLEADEIKEEEGDSDEAEVKKTTKKVLKKKKRV,not soluble
18,MDDLTIEILTDDADYDLQRFDCGEEALNLFLTTHLVRQHRNKILRAYILCRNTPERQVLGYYTLCGSCFERAALPSKSKQKKIPYKNIPSVTLGRLAIDRSLQGQGWGATLVAHAMNVVWSASLAVGIHGLFVEALNEKAHTFYKSLGFIPLVGENENALFFPTKSIELLFTQSD,not soluble
19,MDEIPADIRNEIIYYYRLSRKVLLGLYNKSIIFVLPSIVEGMPSPPLEAMACGCAVVVTDNGGVNEYIKDGLNGIVCPVRDSYCLYQKVILLINNKALREQMIQDGLETAKEFSYDNMNKNFIRLIEEVQRRKSLEHHHHHH,not soluble
20,MDEKKCWLVVCVQSNREKKTYERLSALGFESFLPLQEETRRWSDRSKKVQRVVIPMVVFARIAPSERISVLRLPSVSRFMVLRGESAPAIIPDAQMERFRFMLDYSEEAVEMCSERIQPGEQVKVIKGPLTGLTGELITMDGKSKVAVRINMLGAAMVEVPVGFVERI,not soluble
21,MDENTRNLIKKVERSVFAGNRAAAAKELGEIGDFDAVPVLLKALEDSSSKVKAAASEALGEINDPDAVPCLMKMLDYPESYVKKAAIIALGKIGTQEAVSGIVKGFRDPDKLIRKESVKALMRIGSPEAVSGLTATFTCPDSPLKRISITALGKINTYEAACGLVKALEDPDNRVRQQAVETLGKRGISDVLEELMELLKDSRQPVQEAASEALCKIIGGSESVPVLVKALGASDRKVRKASIEALGKAGNSEAVSALLKELDDDDWYLRSRAADVLADIASPEAALGLVKALDLHDAPVRKLIVSALGKIGSPETIEGLVKALDDPDNSIREAATLGLGKTGKVEAVPGLLRALHDPKNTVQEAAATSLGDMKAREAVPEFLRILEDPDSLIHKSVIFSLEKIGTPEAVAGLSRALNNPDAMVRKAAAKSLEKIKKSGLPLEKAKNIEISGFNISE,not soluble
